Reference: the domain aggregation screens of Martell et al. (2025)

Assay: soluble fraction after stress (log2 fold change); higher = more stays soluble; pooled small domains, quantitative proteomics
Conditions: stress: 75 degC
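Note: 20 min heating vs room temperature control held 20 min.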

HMQGLIGEQKAIQIALSRVPGAKPEHVRELKLDYDDGMQLYEGEIFYNFREYEFEINAVTGEVVGWEI
soluble fraction (log2): -1.01

HMQHRSRALHLQEELVRRYYDQAIAPFMIFWEMKANVTLDQLKELRAVVSPSLNEHPYTKQLDEYIRLAE
soluble fraction (log2): -0.595

HMQIEQVDYGTFMTMIDDKKIDKVEIKDNQILFIGKDDNKKYKTGIVQDPQLAERLHASGAVFSQDI
soluble fraction (log2): 0.261

HMQIIGEQNQKDFIALFGAILRMRNLLLSFDEFKGNELISERDLQDYLGRYQDLRDEWRNKRRER
soluble fraction (log2): -0.0814

HMQINDSSVVQKAVNDVIDQNSKAVSDYWDGKEGAAKFLMGQVMKLTRGQANPDLANQLILTRLQQERV
soluble fraction (log2): 0.437

HMQISDEAALLAIVDRVIADNQGPLANYLGGKQSLLGWFVGQVMRATRGQAIPAVVNRLVGERLAAQREE
soluble fraction (log2): -0.877

HMQISDESQLREVVSKILEENEQSVIDYKNGKTRAMGFIIGQVMKATRGKANPQLVNEIVKEMLDE
soluble fraction (log2): 0.0956

HMQISDTASIQEIAKEIIKSNPKAVEDYKKGKENALQFLVGQLMTKTKGTVHPGAARTILGDILK
soluble fraction (log2): -0.0025

HMQISDTSELEAVVQDILKANMDVVAKIKAGKTNSANFLMGQVMKLTKGRAKPDTVLQLILDAVKQ
soluble fraction (log2): -0.943

HMQISLAAARVNAGLTQEEVAKAMKVGKQTIVSWEKGNSEPKMSQSRELSELYKIPLDYIFYP
soluble fraction (log2): -0.5

HMQITDSGAIETIIDKIIADNPGQVTQYLSGKDKVFGFFVGQTMKASQGKANPAEVNKILQEKLK
soluble fraction (log2): -0.0499

HMQITQSSEPIDVSALRLGMFIHLEGGWLSHPFPRSSFKITSEDQLVTLRSLGISVLRWSPELSDPE
soluble fraction (log2): -3.52

HMQIVPVDYSTFMQSIDDKTVDHVEIQSNQILYTVKDDHKKYKTGIMNDPTLAQRLMESGATFTQD
soluble fraction (log2): 0.12

HMQKAEQIGSLLREKRKSMGLTQDELAQQVEVRRQTLADLELGKNVGSHLLIKVMEHLGVGFDLL
soluble fraction (log2): -0.738

HMQKEIKVPDVANMALSEAVEKLQNEGFKVADEQKEVSSDEIEEGKVVKTSPVAGTKKTKGSEITIYISSG
soluble fraction (log2): 0.26

HMQKFLEATGENRDAAVENALEQLGLERDDVSVEVLEIGKKGFLGIGATPARVRVTYEAPDI
soluble fraction (log2): 0.197

HMQKKEVTVPEVRSKSLKEAAQILSEQNLKYETEPVNVENPDMVVIDQFPKPGGKISEQSVIILYLR
soluble fraction (log2): 0.697

HMQKLNIEEQIVYDIIFKNKELSANEIQIKSGIKTSILNALLINLEIKQYIKLKFGNFYEIK
soluble fraction (log2): 0.181

HMQKMPEMQILPNGKVKLPDFSGINMRKAAELLQYGKLRLQPYGSGTAYQQKPAAGTEVDEGTVVEIWF
soluble fraction (log2): -0.83

HMQKNFYQILGVDSKASPATINAAYERAKSRVIQSGLEDPDTMALLRDAWETLADPGDRAAYDESLAT
soluble fraction (log2): 0.0744

HMQKPELLAPAGSLEKAKTAFKYGADAVYMGTSNLSLRSRVTVDDDELIKTIEYAHSINKKVYAALNIYAR
soluble fraction (log2): 0.249

HMQKPWFYESSGQRKGGFSEQEMVGLITDGEITHGAIVWRNGLSDWTKLEQTELAAHLDKTA
soluble fraction (log2): -0.11

HMQKRDQKKRANMLDSLKVGTRIVTIGGIFGEIAKIKDDRIRIKVAEDVEIWIRRAAVGTVIT
soluble fraction (log2): -1.94

HMQKTPFEIMTIYKDQILEMLGKDLTATEISIVLKKKGEKVHPREIRKFQLQHYEEVQDMRKKWRE
soluble fraction (log2): -1.17

HMQKWILVNKQGRLSGILDHRAFNTRESATAWFQRTSDISGGTIKIDDYYYVLKNEEYKLLKE
soluble fraction (log2): -3.09

HMQKYEDIINVTRERLQNKFYSQTVIPTDDDIYIWLDKVAILEEIKLSKEDRQMLFNLLKKEAT
soluble fraction (log2): -1.35

HMQLGQMIVKLRKEQGLTQETFAKKFNVTRQTVSNWENEKSYPDLHTLVKISDEFHLSLDILLK
soluble fraction (log2): -3.14

HMQLGSILAYKFPQFGGIDGAWQVRDDSNGTGPYIAFWDAKTIGRGMPTEDELTAWAQEYEA
soluble fraction (log2): -0.206

HMQLPTPEDLKKRRNELGLTQSDLAKRAGVSQPLIARIESGDVDPRLSTVRKILDAFEEVEKEQQ
soluble fraction (log2): 0.0518

HMQLSASQQQILNHAAVNTDGKLVWFPETLKGGARKKVLDSLFSRALITTDGTHWFVAAEGYEALGIP
soluble fraction (log2): -1.06

HMQLTDLSALEAIIKEVLAANPKSVEDYKSGKEKAFGSLVGQAMKATKGKANPETVNSLLRKNLN
soluble fraction (log2): 0.729

HMQLTDSDFTRLYTYVKNSYGIDLSKKKQLISSRLTNMLIQQGYRDFTQYTDEIISGKNPEMVSAMLNRLT
soluble fraction (log2): -1.33

HMQLTPAQHAILAKAIHSSDGKIEWFPDNVKGGARKKVLEGMFNRALITPDGEGWRIAAEGYDALGMPRP
soluble fraction (log2): -0.097

HMQLVGSSAAVLIPAPAGGLGKIRLEFRGQTIDLIAKATDGGALIEGGAVTIVDVRDGQADVSV
soluble fraction (log2): -0.939

HMQMMDATLKIPPSMGKLRGTLYELNSVTSEDVDENGQLALHVRLSSVDWQRLKKRFDSNLDELIVQKN
soluble fraction (log2): -0.219

HMQMPLTMATMGEVNKIVKVGGNEETRRFLANLGFVAGAEVVVLSKIGGNVIVNVKDSRVAVNEDMARHIM
soluble fraction (log2): -1.19

HMQMSDTAAIGKIVDEVFAENPAALEDYAKGKTNVVDWLTGQVMKKSRGQANPGIASELVQKRLADF
soluble fraction (log2): 0.0922

HMQMSDTGAIEAMVKEALDENPQAIEDFKNGKGKALGFLMGQVMKKSKGQANGGIVNKLIKEELQKRIG
soluble fraction (log2): 0.292

HMQMTKSEFLDALRRALNGNMAAASVDDNIRFYDSYFYTEETKGRSEAEILSELGDPRILARTLIDAAD
soluble fraction (log2): -0.0328

HMQNEIQQLAIDLIARAHKSGASDIHIVDTGTYTRIKFRVLGLLREDSQMEAETGRQMISTIYGILG
soluble fraction (log2): -0.0698

HMQNEKLSYFVTETIVTERADLFITKKFPQFSRSQIQKLINSGNITINSNPIKASTEIINKDNIEITIPV
soluble fraction (log2): -2.15

HMQNESGLFTMSDLWEAGLMGSENASRKRAAVGAFLGIGFGNGKQFLKRLNHFGVTKEEWESALEQLGE
soluble fraction (log2): -1.18

HMQNEVMPYSTFLSEVNSGNVTKVKIDHEQLTGTLKSGKQFTTYILDAATLPSIVAEKGVEVEVVPP
soluble fraction (log2): 0.506

HMQNGNYVVQRQDSLWSIAARISGQTHQPIGEVMNHIKALNEHAFVGGNVNRLRTGTNLNLG
soluble fraction (log2): -0.224

HMQNKRQEQLLALLAERRDYMTSRQLAEILQVSDRTIRSDVEAINRRSSPPPIESNVRQGYRLNPEA
soluble fraction (log2): -0.142

HMQNNIEFTVLEEDAQKRLDVLLSEKTALSRSASASLIEEGGVLVNGRKEPKKYKPVRGEIITAILPE
soluble fraction (log2): 0.504

HMQNNTIAFSKFLQEVDNGRVVQVEIQGNNINGILSDGSKFNTYSPNYPALVEKLSEKNVNIVASPV
soluble fraction (log2): 0.0941

HMQNPDHLLALAAAAQAAIELGRPDEAEAYYRHLVEVYGVEMASQKPEYLDHSGITNDLRNVAEGFLVG
soluble fraction (log2): -1.06

HMQNRIVNTTQGLAADKRGLLVADETGHTTRPGIFASGDVVNGARTVVEAVAHSKIVAESMHQYMQ
soluble fraction (log2): 0.654

HMQNSLKAFRVKRGLTTSALSRLTNGEFSTSRISNYETGVRALTIDAAKKLAPHLGASPAQLLNL
soluble fraction (log2): -0.694

HMQNSPVFAASDIEDIRVGMTVEHQRFGQGRVMSIEGNGPNKKTTVLFEGIGEKQLLLQYAKLKIV
soluble fraction (log2): -0.664

HMQNYLLFEEAKNIVNTLNLTNEKDWSEFIKKDFTYKNQIPIFPNQYYKHKGWVDWNDWLGINK
soluble fraction (log2): -1.35

HMQNYTTIIGVIELRLNDISYDNVRKRYHIGRSGITLIMDRYRDSGLSLEDLKQMTPEKVVDLFYPR
soluble fraction (log2): -2.55

HMQPAALEAQVIKLVRLHAPIKARQLATILANEFGQHVDRSTVNSLLYQLRAQGKVAQNAAYQWSLT
soluble fraction (log2): -2.01

HMQPEKELAPLIGQRVSVRLHDGDGGYRDLLGELESPDSIRKKNGEIAFFDPAKIAALRVVV
soluble fraction (log2): 0.0667

HMQPGDRVDALIVGVSGEHVFLDVGGKSEGVMAAAELRNEAGELSAAEGDRVQVYLLSNRNGELIFTA
soluble fraction (log2): 0.205

HMQPHLSADEEHLLKILGSDTMHIDALVKRSTLETSNALAALAFLEMKGLVKNIGNMHYIRTYR
soluble fraction (log2): -0.552

HMQPIAVHIGTENPMKSLSDLSVVRAQFTSGGRVIGSVAVLGPTRMQYSRIVGMMRFMQQRLDLLLKG
soluble fraction (log2): -0.0629

HMQPKKLNMYYDYVRQLLESHPYLSAAQIEDRLKEEFTELPMVHSKTVFNFVENIRLQHGINKHA
soluble fraction (log2): -0.219

HMQPLRQGDFVTSEVVKVQDGTAVLRTAQGTLLSASLTGNLGLLPGDRVETVVVEASPGRFVLRVLDIIR
soluble fraction (log2): -0.747

HMQPPLTPRELGVLQWAAEGKTTRDTSAILQIHQRTVEMHLKSAREKLDALNTTHAVARALAHGFILPPS
soluble fraction (log2): -0.0091

HMQPPVDGNEIMEIFGIKGSPVIGVIKSTIKNAILDGIIAPNDREAALELMFRIADENGLKPVVTQTQ
soluble fraction (log2): -0.0513

HMQPRYMLIKTAILDAIERGEMKPGSQVPSENQLAQQHNVSRMTARRALSEMVDDGILMRSQGIGTFVSD
soluble fraction (log2): -0.228

HMQPSFFEMIRMVESYIKQHFENVGNEFPEIARAIYYGIEEERNIYGTASREDMEELLDEGIPILPVP
soluble fraction (log2): -0.914

HMQPVEHLPTTDPLTTSAASEHERYEKVRWWLEEMQRTYETGDEVRAERIRLSLIEQMYKWEGE
soluble fraction (log2): -0.513

HMQPYTYNPNFLSDYRAYSLGIPLEAYDKLVQFRASGSFVNSMSDFQKITGVSDSLLAVLHSKFRYPK
soluble fraction (log2): -0.826

HMQQELEEMESGNLVRTAIDSLPINQRTAFILSAYEELPIKEIASIMNRSEGAVEQLLQRAKMNLKKKIK
soluble fraction (log2): 0.233

HMQQLTDRELEVLRLLAAGLSNNKIGEKLYISATTAKFHVSNIMRKLEVSRRAEAVYAASKRGL
soluble fraction (log2): -2.26

HMQQLTQRELTLLRLLANGYNNRQIAEQLQLAESTVKNNLSALFQKIGVRDRTQAVLFAISQGLVP
soluble fraction (log2): -1.04

HMQQNDMTELRALAEKIISENDSVINDYKSGQGSALQFLIGQAMKETKGSANPQVISEIFTDLL
soluble fraction (log2): -0.354
